Measured values published in US20120070434A1.
Where two headings read alike, the source gives them in different places.

B1: HC+LC-TPO antibody (antibody)
heavy: QVQLVQSGAEVKKPGASVKVSCKASGYTFTYYAMHWVRQAPGQRPEWMGWINGGDGKTKYAQKFQGRLAITRDTSARTAYMELISLTSEDTAVYYCAKGAEMTVGSWGPGTLVTVSSASTKGPSVFPLAPCSRSTSESTAALGCLVKDYFPEPVTVSWNSGALTSGVHTFPAVLQSSGLYSLSSVVTVPSSNFGTQTYTCNVDHKPSNTKVDKTVERKCCVECPPCPAPPVANPIEGPTLRQWLAARARGGPSVFLFPPKPKDTLMISRTPEVTCVVVDVSQEDPEVQFNWYVDGVEVHNAKTKPREEQFNSTYRVVSVLTVLHQDWLNGKEYKCKVSNKGLPSSIEKTISKAKGQPREPQVYTLPPSQEEMTKNQVSLTCLVKGFYPSDIAVEWESNGQPENNYKTTPPVLDSDGSFFLYSRLTVDKSRWQEGNVFSCSVMHEALHNHYTQKSLSLSLGK
light: DIQMTQSPSSLSASVGDRVTLTCRASQGVRNALVWYQQKPGKAPERLIYAASILQSGVPSRFSGSGSGTEFTLTIGGLQPEDFATYYCLQHNSYPWTFGQGTKVEIKRTVAAPSVFIFPPSDEQLKSGTASVVCLLNNFYPREAKVQWKVDNALQSGNSQESVTEQDSKDSTYSLSSTLTLSKADYEKHKVYACEVTHQGLSSPVTKSFNRGECARSLIEGPTLRQWLAARAPI

How the values were obtained:
[1] = target: Recombinant TPO receptor (R&D Systems); test: BLI (Octet), biotinylated TPO receptor on streptavidin probe, second experiment
[2] = target: Recombinant TPO receptor (R&D Systems)

Molecule	Kd [1]	Kd [2]
recombinant human thrombopoietin (from UniProt P40225 22-353) (ligand)	3 nM	
B1	3 nM	2.32 nM
